One may read the Kd as the equilibrium constant for the complex coming apart.

The target in test [1] is T1, full-length cyno SIRPα (XP_015313155) on CHO-K1 cells, clone P3HD10 (cynomolgus monkey).
T1 chain: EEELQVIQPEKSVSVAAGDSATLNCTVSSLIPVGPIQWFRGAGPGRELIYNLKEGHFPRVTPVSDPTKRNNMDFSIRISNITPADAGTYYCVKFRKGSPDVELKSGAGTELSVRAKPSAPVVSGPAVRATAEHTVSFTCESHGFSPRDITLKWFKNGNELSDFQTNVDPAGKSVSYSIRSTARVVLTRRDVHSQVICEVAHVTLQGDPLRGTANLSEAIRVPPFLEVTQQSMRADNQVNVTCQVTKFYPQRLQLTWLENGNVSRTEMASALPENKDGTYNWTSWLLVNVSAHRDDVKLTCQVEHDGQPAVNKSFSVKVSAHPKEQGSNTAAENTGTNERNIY
Briefly: flow cytometry, CHO-K1 cells. On the procedure:
(§1) Antibody binding to cells expressing cynomolgus (cyno) SIRPα was evaluated by flow cytometry. CHO-K1 cells expressing full-length cyno SIRPα; derived from protein sequence accession numbers (A) EGM-02252; (B) XP_015313155; or (C) NP_001271679, are blocked with donkey IgG and incubated on ice with increasing concentrations of antibodies for 60 minutes, washed and stained with AF647-conjugated donkey F(ab′)₂ anti-human IgG secondary reagent. Cells are washed, fixed, and analyzed by flow cytometry. Median fluorescent intensity is determined and used as a measure of antibody binding.
In general terms: A flow cytometer gives signals particle by particle.

Test [2] deals with T2, full-length cyno SIRPα (NP_001271679) on CHO-K1 cells, clone HC6 (cynomolgus monkey, UniProt A0A2K5VYQ9).
T2 construct: whole, on cells
T2 sequence: T1 chain with P62A, F163V, V185L
Nature of the test: flow cytometry, CHO-K1 cells. As to the method: as §1

The target of test [3] is T3, cynomolgus SIRPα extracellular domain + His-tag (NP_001271679) (cynomolgus monkey).
T3 construct: also called CySIRPα NP_001271679; cynoSIRPα
T3 chain: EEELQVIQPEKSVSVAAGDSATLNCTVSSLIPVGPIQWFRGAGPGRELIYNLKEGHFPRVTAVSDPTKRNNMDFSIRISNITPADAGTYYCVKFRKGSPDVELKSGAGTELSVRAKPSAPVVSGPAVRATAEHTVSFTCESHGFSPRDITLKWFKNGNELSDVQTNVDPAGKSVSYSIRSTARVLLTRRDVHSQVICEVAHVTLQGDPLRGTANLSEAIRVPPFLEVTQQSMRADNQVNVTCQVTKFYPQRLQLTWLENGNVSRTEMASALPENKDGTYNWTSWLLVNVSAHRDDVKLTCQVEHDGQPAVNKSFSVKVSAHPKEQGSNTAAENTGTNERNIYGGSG
Briefly: SPR, Ab captured, ECD-His analyte. In a few lines:
(§2)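 In HBS-EP+ (1×), captured antibodies are exposed to a twofold concentration series of SIRP extracellular domain carrying a His tag, using 300 s contact at 30 μl/min and a 600 s dissociation window.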
A general note: In SPR one partner is held on a chip, and binding of the other changes the refractive index at the surface.

Test [4] deals with T4, cynomolgus SIRPα extracellular domain + His-tag (EGM_02252) (cynomolgus monkey).
T4 construct: also called CySIRPα EGM_02252; cynoSIRPα
T4 chain: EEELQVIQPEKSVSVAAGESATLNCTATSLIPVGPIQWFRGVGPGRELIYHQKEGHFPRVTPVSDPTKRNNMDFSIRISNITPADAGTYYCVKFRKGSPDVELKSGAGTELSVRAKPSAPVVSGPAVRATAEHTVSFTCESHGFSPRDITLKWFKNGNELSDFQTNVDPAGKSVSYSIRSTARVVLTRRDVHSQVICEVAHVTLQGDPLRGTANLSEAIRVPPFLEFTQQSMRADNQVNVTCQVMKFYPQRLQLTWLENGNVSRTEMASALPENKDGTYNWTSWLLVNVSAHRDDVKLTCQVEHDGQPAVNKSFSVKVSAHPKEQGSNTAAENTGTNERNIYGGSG
Briefly: SPR, Ab captured, ECD-His analyte. The procedure, abridged:
as §2

Test [5] has as its target T5, cynomolgus SIRPα extracellular domain + His-tag (XP_015313155) (cynomolgus monkey).
T5 construct: also called CySIRPα XP_015313155; cynoSIRPα
T5 chain: T3 chain with A62P, V163F, L185V
Nature of the test: SPR, Ab captured, ECD-His analyte. In a few lines: as §2

Test [6] concerns the target T6, cynomolgus SIRPγ extracellular domain + His-tag (XP_005568591) (cynomolgus monkey, UniProt Q9P1W8 29-359 (human entry)).
T6 construct: also called Cyno SIRPγ; cynoSIRPγ
T6 chain: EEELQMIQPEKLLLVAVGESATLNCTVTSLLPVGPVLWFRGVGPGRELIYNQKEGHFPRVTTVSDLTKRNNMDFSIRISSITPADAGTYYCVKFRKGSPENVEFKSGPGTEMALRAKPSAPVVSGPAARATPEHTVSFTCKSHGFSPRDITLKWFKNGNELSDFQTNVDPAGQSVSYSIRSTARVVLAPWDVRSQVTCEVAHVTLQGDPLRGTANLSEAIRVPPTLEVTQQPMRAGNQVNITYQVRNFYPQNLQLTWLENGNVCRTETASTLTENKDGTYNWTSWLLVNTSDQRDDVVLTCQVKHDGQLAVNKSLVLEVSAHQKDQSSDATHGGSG
Nature of the test: SPR, Ab captured, ECD-His analyte. In a few lines: as §2

Positions count from the first letter of the chain named.

B1: Antibody A (antibody, human IgG1, kappa, L234A L235A)
heavy: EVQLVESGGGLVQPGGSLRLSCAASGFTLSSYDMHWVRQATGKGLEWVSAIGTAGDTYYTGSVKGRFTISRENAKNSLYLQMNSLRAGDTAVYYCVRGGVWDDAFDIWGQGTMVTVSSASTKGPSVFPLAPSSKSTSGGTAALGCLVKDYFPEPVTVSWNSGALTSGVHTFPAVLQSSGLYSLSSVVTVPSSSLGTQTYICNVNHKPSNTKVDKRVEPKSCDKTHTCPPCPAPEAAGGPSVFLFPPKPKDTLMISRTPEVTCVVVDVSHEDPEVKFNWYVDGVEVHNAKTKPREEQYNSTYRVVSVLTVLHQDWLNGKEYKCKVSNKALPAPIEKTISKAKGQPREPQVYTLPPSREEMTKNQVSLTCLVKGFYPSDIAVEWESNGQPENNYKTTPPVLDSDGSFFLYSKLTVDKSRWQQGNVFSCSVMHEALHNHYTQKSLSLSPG
light: DIQMTQSPSSLSASVGDRVTITCRASQDINNYLAWFQQKPGKAPKSLIYTASSLHSGVPSKFSGSGSGTDFTLTISSLQPEDFATYYCQQYVSYPYTFGQGTKLEIKRTVAAPSVFIFPPSDEQLKSGTASVVCLLNNFYPREAKVQWKVDNALQSGNSQESVTEQDSKDSTYSLSSTLTLSKADYEKHKVYACEVTHQGLSSPVTKSFNRGEC
With B1, the “fold weaker EC50 than on clone H3A9” value in test [1] and in test [2] was ≤ 5 fold in each case. For the same molecule, the equilibrium dissociation constant (Kd) in test [3] turned out to be 336 nM; in test [4] it was 258 nM; in test [5] it was 165 nM. Also, the binding result in test [6] is “no binding (tested: 1000 nM)”.

B2: Antibody A10 (antibody, human IgG1, kappa, L234A L235A)
heavy: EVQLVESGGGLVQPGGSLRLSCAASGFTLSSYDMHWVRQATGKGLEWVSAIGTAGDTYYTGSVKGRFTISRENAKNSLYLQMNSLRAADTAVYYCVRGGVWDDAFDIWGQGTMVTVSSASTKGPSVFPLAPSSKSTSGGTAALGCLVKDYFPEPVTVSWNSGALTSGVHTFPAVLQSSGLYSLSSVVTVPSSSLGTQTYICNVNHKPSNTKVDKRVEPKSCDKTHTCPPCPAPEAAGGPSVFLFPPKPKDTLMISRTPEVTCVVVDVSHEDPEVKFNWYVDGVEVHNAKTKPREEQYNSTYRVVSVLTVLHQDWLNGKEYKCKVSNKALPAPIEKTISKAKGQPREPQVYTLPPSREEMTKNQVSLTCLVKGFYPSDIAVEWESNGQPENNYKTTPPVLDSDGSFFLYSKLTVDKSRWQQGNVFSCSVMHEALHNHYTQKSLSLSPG
light: B1 light
With B2, the “fold weaker EC50 than on clone H3A9” value in test [1] and in test [2] was ≤ 5 fold each time. Further, the equilibrium dissociation constant (Kd) in test [3] came to 378 nM; in test [4], 249 nM; in test [5] it was 180 nM. For the same molecule, in test [6], the binding result was “no binding (tested: 1000 nM)”.
